T1: mature form of full-length OmpA (OmpA325) (E. coli K12 MG1655), P0A910
T1 chain: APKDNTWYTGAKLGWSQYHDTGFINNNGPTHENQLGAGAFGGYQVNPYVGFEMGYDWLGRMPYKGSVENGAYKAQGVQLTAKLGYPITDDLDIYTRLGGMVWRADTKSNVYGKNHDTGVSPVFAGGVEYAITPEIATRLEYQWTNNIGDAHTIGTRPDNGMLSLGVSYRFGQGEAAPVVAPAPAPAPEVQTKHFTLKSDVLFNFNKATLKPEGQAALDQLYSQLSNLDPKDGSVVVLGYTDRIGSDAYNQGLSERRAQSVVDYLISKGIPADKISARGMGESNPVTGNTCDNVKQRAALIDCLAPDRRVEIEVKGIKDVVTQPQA


Columns and labels:
[1] = biological target: N-terminal barrel domain of OmpA (OmpA171, residues 1–171) (E. coli K12 MG1655); test: circular dichroism kinetics
[2] = biological target: T1, mature form of full-length OmpA …; test: AUC; conditions: remark: other sources report otherwise

N-terminal barrel domain of OmpA (OmpA171, residues 1–171) (domain or fragment), sequence (P0A910 1-171): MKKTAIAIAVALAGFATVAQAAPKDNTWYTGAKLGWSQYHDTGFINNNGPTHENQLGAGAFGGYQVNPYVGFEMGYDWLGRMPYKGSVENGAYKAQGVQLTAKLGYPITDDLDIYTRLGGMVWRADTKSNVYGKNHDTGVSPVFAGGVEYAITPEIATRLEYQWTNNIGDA

critical nucleus size n* (nucleated growth polymerization model) [1]	order of the self-association reaction (initial rates) [1]	percent monomer (3 μM OmpA325, 450 mM urea, 30 minutes) [2]	Molecule
2.6 molecules	3.2		N-terminal barrel domain of OmpA (OmpA171, residues 1–171) (domain or fragment)
		75%	mature form of full-length OmpA (OmpA325), P0A910 22-346 (natural protein) APKDNTWYTGAKLGWSQYHDTGFINNNGPTHENQLGAGAFGGYQVNPYVGFEMGYDWLGRMPYKGSVENGAYKAQGVQLTAKLGYPITDDLDIYTRLGGMVWRADTKSNVYGKNHDTGVSPVFAGGVEYAITPEIATRLEYQWTNNIGDAHTIGTRPDNGMLSLGVSYRFGQGEAAPVVAPAPAPAPEVQTKHFTLKSDVLFNFNKATLKPEGQAALDQLYSQLSNLDPKDGSVVVLGYTDRIGSDAYNQGLSERRAQSVVDYLISKGIPADKISARGMGESNPVTGNTCDNVKQRAALIDCLAPDRRVEIEVKGIKDVVTQPQA

— article PMC3169180
